According to patent US20230190868A1 (NATIONAL UNIVERSITY OF SINGAPORE, published 2023):

Target: T1, cell-surface GRP78 (csGRP78) on mouse alveolar macrophages (primary AMs; MH-S cells) (mouse, UniProt P20029 20-655)
T1 construct: whole, on cells; Endogenous protein on mouse cells; the species follows from the cells used; also called Glucose-Regulated Protein 78 kDa
Test: confocal immunofluorescence on non-permeabilized primary alveolar macrophages, 1 µM rISM1
Protocol: Cell-surface GRP78 (csGRP78) has been previously detected on mouse peritoneal macrophages (Misra, Gonzalez-Gronow et al., 2005) and human monocytes (Lu, Lai et al., 2010). Primary AMs were treated with recombinant ISM1 (rISM1) to determine if csGRP78 is present and serves as an ISM1 receptor on AMs. It was observed that rISM1 binds to csGRP78 on non-permeabilized AMs (FIG. 6C) and co-localized with GRP78 intracellularly (FIG. 6D), leading to AM apoptosis (FIG. 2K and FIG. 6E). Similarly, rISM1 induced apoptosis in immortalized mouse AM cells (MH-S) upon thapsigargin (TG) pretreatment (FIG. 6F), an ER stress inducer known to promote GRP78 translocation to the cell surface (Li, Ni et al., 2008). […] Increased AMs in Ism1^{Δ/Δ} lungs contributed towards protease-antiprotease imbalance, thus leading to spontaneous COPD in Ism1^{Δ/Δ} mice under ambient air.
(FIG. 6C). […] In FIG. 6C, representative confocal images of primary AMs for rISM1 (red) and GRP78 (green) co-localization after 1 µM rISM1 treatment for 1 hour are shown (Nuclei were stained with DAPI (blue)). Further, mouse AM cell line MH-S cells undergo ISM1 induced apoptosis when the cells were pre-treated with thapsigargin (TG), which induce ER stress and upregulate csGRP78. Denatured ISM1 (boiled) lost this pro-apoptotic function, indicating this pro-apoptotic activity is a function of the ISM1 protein. […]

T1 sequence (P20029 20-655): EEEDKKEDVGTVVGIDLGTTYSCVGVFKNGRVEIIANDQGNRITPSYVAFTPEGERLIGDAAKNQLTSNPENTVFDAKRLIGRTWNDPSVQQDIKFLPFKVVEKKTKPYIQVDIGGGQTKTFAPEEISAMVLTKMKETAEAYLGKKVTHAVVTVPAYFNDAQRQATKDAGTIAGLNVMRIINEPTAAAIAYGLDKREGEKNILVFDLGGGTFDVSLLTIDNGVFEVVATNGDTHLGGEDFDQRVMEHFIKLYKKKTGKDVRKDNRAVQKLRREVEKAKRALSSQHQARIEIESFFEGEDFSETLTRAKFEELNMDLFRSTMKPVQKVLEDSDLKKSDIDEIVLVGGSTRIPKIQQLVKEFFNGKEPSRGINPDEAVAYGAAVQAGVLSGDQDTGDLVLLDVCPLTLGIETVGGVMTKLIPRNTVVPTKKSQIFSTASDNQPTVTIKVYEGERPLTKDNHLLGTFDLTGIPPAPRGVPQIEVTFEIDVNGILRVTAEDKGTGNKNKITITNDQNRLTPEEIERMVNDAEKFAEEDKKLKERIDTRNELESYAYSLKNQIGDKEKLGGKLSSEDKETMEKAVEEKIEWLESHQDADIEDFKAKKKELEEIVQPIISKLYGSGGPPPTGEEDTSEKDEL

binding result: binds
B1: recombinant ISM1 (rISM1), mouse mature form without signal peptide, 6xHis-tagged, expressed in E. coli (vector pET-M) (ligand)
chain: SDRQDAAAGNVSGSQLQNNLNLESDSTSETSFPLSKEAPEEHQVVHQPFPRQRFPPETGHPSLQRDGPRSFLLDLPNFPDLSKADINGQNPNIQVTIEVVDGPDSEAEKDQHPENKPSWSLPAPDWRAWWQRSLSLARTNSGDQDDKYDSTSDDSNFLSVPRGWDRPAPGHRTFETKEQPEYDSTDGEGDWSLWSVCSVTCGNGNQKRTRSCGYACIATESRTCDRPNCPGIEDTFRTAATEVSLLAGSEEFNATKLFEVDMDSCERWMSCKSEFLKKYMHKVINDLPSCPCSYPTEVAYSTADIFDRIKRKDFRWKDASGPKEKLEIYKPTARYCIRSMLSLESTTLAAQHCCYGDNMQLITRGKGAGTPNLISTEFSAELHYKVDVLPWIICKGDWSRYNEARPPNNGQKCTESPSDEDYIKQFQEAREYLEHHHHHH
notes: also called mouse rISM1
